Laboratory results taken from IntAct's records for PubMed 28062662.

B1: Glutaryl-CoA dehydrogenase, mitochondrial (Homo sapiens), Q92947 (parent)
chain: MALRGVSVRLLSRGPGLHVLRTWVSSAAQTEKGGRTQSQLAKSSRPEFDWQDPLVLEEQLTTDEILIRDTFRTYCQERLMPRILLANRNEVFHREIISEMGELGVLGPTIKGYGCAGVSSVAYGLLARELERVDSGYRSAMSVQSSLVMHPIYAYGSEEQRQKYLPQLAKGELLGCFGLTEPNSGSDPSSMETRAHYNSSNKSYTLNGTKTWITNSPMADLFVVWARCEDGCIRGFLLEKGMRGLSAPRIQGKFSLRASATGMIIMDGVEVPEENVLPGASSLGGPFGCLNNARYGIAWGVLGASEFCLHTARQYALDRMQFGVPLARNQLIQKKLADMLTEITLGLHACLQLGRLKDQDKAAPEMVSLLKRNNCGKALDIARQARDMLGGNGISDEYHVIRHAMNLEAVNTYEGTHDIHALILGRAITGIQAFTASK
partner: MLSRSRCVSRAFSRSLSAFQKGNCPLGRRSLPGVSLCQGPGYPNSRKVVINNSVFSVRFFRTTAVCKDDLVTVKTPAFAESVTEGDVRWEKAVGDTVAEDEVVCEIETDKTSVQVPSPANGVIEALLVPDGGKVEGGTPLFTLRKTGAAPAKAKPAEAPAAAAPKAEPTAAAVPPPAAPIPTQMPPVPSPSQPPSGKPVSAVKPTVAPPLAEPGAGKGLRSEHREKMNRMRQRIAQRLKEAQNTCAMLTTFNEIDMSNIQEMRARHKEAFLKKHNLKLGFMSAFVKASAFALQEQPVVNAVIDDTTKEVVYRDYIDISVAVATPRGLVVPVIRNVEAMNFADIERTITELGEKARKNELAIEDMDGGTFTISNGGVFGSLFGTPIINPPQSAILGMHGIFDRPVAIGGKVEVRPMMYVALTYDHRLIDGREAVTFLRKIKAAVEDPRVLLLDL

Variants of: B1
Conditions: with odo2_human DLST

Variant	effect of a mutation on the interaction
G117R	increasing interaction strength
R161Q	increasing interaction strength
R227P	decreasing interaction strength
G101R	decreasing interaction strength
R355H	decreasing interaction strength
C115Y	increasing interaction strength
R94L	increasing interaction strength
S119L	increasing interaction strength
P248L	increasing interaction strength
G244C	increasing interaction strength
Y113H	decreasing interaction strength
P278S	increasing interaction strength
M263V	increasing interaction strength
E90K	increasing interaction strength
Y155H	decreasing interaction strength
P217L	decreasing interaction strength
